The results in this text go back to PMC5440646 (2017).

Where no end group is shown, it is not given here. [ ]: non-standard residue; d: D form. The star is where a group is joined. Biotin = O=C1N[C@H]2[C@H](CS[C@H]2CCCCC(=O)*)N1; pY = N[C@@H](Cc1ccc(OP(=O)(O)O)cc1)C(=O)O

One may read the Kd as a measure of binding affinity in units of concentration. Read a high Kd as lower affinity.

Assay in all cases: SPR
(SPR reads the build-up and loss of mass on a sensor chip optically.)

Assay [1] has as its target T1, SLP-76 SH2 domain, His-tagged (UniProt Q13094 422-530).
T1 chain: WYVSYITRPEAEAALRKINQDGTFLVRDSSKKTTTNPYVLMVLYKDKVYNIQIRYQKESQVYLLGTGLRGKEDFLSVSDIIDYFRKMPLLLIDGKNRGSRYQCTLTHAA

Assay [2] deals with T2, GADS SH2 domain, His-tagged (UniProt O75791 58-149).
T2 chain: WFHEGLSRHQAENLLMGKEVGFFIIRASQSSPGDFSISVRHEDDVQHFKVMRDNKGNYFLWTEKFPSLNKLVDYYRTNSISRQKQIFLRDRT

The target of the next assay is T3, CD28 pYMN peptide (Homo sapiens, UniProt P10747).
T3 chain: LLHSD[pY]MNMTPRR

The target of the next assay is T4, CD6 long pY629 peptide (Homo sapiens, UniProt P30203, pY629).
T4 chain: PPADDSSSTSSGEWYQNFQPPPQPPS

For Biotin-STSSGEWYQNFQPPPQPPSEEQFGCPGSPSPQPDSTDNDD[pY]DDISAA [long CD6 peptide phosphorylated at Y662], in assay [1], binding was characterised by a dissociation constant (Kd) of 1000 nM. In other words, the single-digit micromolar range.
Take Biotin-STSSGEW[pY]QNFQPPPQPPSEEQFGCPGSPSPQPDSTDNDD[pY]DDISAA [long CD6 peptide phosphorylated at Y629 and Y662]: the Kd in assay [1] and in assay [2] was 1000 nM throughout.
Biotin-STSSGEW[pY]QNFQPPPQPPSEEQFGCPGSPSPQPDSTDNDDYDDISAA [long CD6 peptide phosphorylated at Y629] showed a Kd in assay [2] of 1000 nM. This lies in the single-digit micromolar range.

B1: GADS SH2 (protein)
chain: FPKWFHEGLSRHQAENLLMGKEVGFFIIRASQSSPGDFSISVRHEDDVQHFKVMRDNKGNYFLWTEKFPSLNKLVDYYRTNSISRQKQIFLRDRTRED
As for B1, the Kd with CD28 pYMN peptide is about 2500 nM; with CD6 long pY629 peptide, about 400 nM.
